According to publication PMC2935870:

Target: pGBKT7-53
Test: two-hybrid

pGADT7-T (domain or fragment)
α-galactosidase activity: 22
